Assay results as given in patent US20070172423A1, “Composition and method for modulating vasculogenesis for angiogenesis” (priority 1998, published 2007).

What was measured:
human VEGFR-3 = target: T1, human VEGFR-3 (Homo sapiens, UniProt P35916); assay: Binding to soluble VEGFR-3-Ig fusion protein; details: 35S-labeled protein in conditioned medium from 293 cells, precipitation with Ig-fusion protein
T1 construct: soluble Ig-fusion proteins containing the extracellular domains of human VEGFR-1, VEGFR-2 and VEGFR-3; made in house; host or cells: human 293 EBNA cells, transient expression
T1 sequence (P35916 25-775 limits assumed): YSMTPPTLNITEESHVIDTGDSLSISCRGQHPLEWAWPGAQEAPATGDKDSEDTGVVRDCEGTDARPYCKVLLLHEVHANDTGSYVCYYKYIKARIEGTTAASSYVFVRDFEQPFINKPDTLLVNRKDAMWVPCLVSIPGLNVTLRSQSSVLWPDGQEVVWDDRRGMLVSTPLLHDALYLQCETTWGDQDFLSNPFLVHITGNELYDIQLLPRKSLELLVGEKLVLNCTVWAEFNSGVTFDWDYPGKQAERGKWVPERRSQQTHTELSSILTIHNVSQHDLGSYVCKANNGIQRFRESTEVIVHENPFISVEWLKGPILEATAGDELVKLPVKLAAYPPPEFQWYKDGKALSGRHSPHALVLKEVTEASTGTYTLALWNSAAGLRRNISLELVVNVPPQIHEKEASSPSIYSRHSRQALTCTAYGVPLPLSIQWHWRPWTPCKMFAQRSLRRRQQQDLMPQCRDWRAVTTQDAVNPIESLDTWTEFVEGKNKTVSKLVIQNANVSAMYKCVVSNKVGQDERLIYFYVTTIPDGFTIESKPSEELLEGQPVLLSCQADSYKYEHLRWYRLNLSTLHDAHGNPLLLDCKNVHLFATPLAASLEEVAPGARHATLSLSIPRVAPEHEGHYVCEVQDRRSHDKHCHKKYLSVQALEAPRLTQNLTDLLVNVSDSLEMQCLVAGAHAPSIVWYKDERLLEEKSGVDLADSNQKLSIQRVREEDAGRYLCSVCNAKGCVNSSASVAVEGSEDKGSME
Protocol: To assess the interactions between full length and truncated PDGF-C and the VEGF receptors, full length and truncated PDGF-C were tested for their capacity to bind to soluble Ig-fusion proteins containing the extracellular domains of human VEGFR-1, VEGFR-2 and VEGFR-3 (Olofsson et al., Proc. Natl. Acad. Sci. USA, 1998 95:11709-11714). The fusion proteins, designated VEGFR-1-Ig, VEGFR-2-Ig and VEGFR-3-Ig, were transiently expressed in human 293 EBNA cells. All Ig fusion proteins were human VEGFRs. Cells were incubated for 24 hours after transfection, washed with Dulbecco's Modified Eagle Medium (DMEM) containing 0.2% bovine serum albumin and starved for 24 hours. The fusion proteins were then precipitated from the clarified conditioned medium using protein A-Sepharose beads (Pharmacia). The beads were combined with 100 microliters of 10× binding buffer (5% bovine serum albumin, 0.2% Tween 20 and 10 µg/ml heparin) and 900 microliter of conditioned medium from 293 cells that had been transfected with mammalian expression plasmids encoding full length or truncated PDGF-C or control vector, then metabolically labeled with ^35S-cysteine and methionine (Promix, Amersham) for 4 to 6 hours. […] Labeled proteins that were bound to the Ig-fusion proteins were analyzed by SDS-PAGE under reducing conditions. Radiolabeled proteins were detected using a phosphorimager analyzer.

[1] = tested on: ischemic gastrocnemius muscle; assay: Hind limb ischemia mouse model (femoral artery ligation); assay type: in vivo
From the text: To further verify the angio/arteriogenic activity of PDGF-CC in vivo, the effect of PDGF-CC in an established mouse model of hind limb ischemia is investigated (Luttun et al., Nat Med, 2002 1:1). PDGFR-α expression was quantified by RNAse protection analysis in the gastrocnemius muscle, which becomes highly ischemic after ligation of the femoral artery (Deindl et al., Circ Res, 2001 89:779-86; Couffinhal et al., American Journal of Pathology, 1998 152:1667-1679). Two days after femoral artery ligation, when a fraction of myocytes died due to ischemic necrosis, PDGFR-α transcript levels decreased to 76% of those found in normal muscles (FIG. 37a). […] Revascularization of the ischemic gastrocnemius muscle, which only occurred in those regions where regenerating muscle replaced the necrotic avascular muscle, was scored after continuous delivery, by osmotic minipump, of 4.5 μg PDGF-CC per day for one week after femoral artery ligation. […] PDGF-CC also enlarged the second-generation collateral side branches in the adductor muscle ([…] after saline versus […] after PDGF-CC; N=10; P=0.05). […] Thus, PDGF-CC stimulates revascularization in mouse models of both heart and limb ischemia.

[2] = 4.5 μg per day for one week after femoral artery ligation

B1: PDGF-CC: recombinant human PDGF-CC core domain homodimer, residues 230-345 of full-length PDGF-C (SEQ ID NO:40), produced in baculovirus infected insect cells (protein)
chain: GRKSRVVDLNLLTEEVRLYSCTPRNFSVSIREELKRTDTIFWPGCLLVKRCGGNCACCLHNCNECQCVPSKVTKKYHEVLQLRPKTGVRGLHKSLTDVALEHHEECDCVCRGSTGG
modifications: homodimer; PDGF-C core domain
interaction with VEGFR-3-Ig (human VEGFR-3): failed to show any interaction
hemorrhage, edema or fibrosis in treated limbs ([1]; 4.5 μg per day for one week): No signs of hemorrhage, edema or fibrosis
angiogenesis (capillary density) [1, 2]: increased
arteriogenesis (density of SMA+ vessels) [1, 2]: enhanced
extent of ischemic muscle necrosis [1, 2]: reduced
skeletal muscle regeneration [1, 2]: enhanced
second-generation collateral side branches in the adductor muscle ([1]; after femoral artery ligation, N=10): 920±100 μm^3
